Laboratory results taken from patent publication US20080193450A1 (ISTITUTO SUPERIORE DI SANITA, published 2008).

Target: native, highly purified SAP2 preparation (Candida albicans, UniProt P0CS83 57-398)
Assay: cell-based or functional assay

native, highly purified SAP2 preparation, sequence (P0CS83 57-398 limits assumed): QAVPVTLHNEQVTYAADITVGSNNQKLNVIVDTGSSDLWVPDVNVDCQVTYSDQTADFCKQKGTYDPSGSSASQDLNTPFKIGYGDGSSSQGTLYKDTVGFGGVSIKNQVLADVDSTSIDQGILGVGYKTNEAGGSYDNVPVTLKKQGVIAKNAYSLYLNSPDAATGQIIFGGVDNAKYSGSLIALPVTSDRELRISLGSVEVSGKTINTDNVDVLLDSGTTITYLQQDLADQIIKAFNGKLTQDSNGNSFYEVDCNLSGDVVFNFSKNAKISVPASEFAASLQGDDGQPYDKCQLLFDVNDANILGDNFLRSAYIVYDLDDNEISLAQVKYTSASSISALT

pepstatin A (peptide)
% Inhibition (BSA degradation, proteinase enzyme assay): 100%
ΔOD/ml/min (BSA degradation, proteinase enzyme assay): 0.36 ΔOD/ml/min

B1: ADR4-11 (other)
chain: EVQLLESGGGLVQPGGSLRLSCAASGVIFTDQTMGWVRQAPGKGLEWVSAIKTRDGSTYYADSVKGRFTISRDNSKNTLYLQMNSLRAEDTAVYYCARFLRPNASRGSAREAQIHSWGQGTLVTVSS
% Inhibition (BSA degradation, proteinase enzyme assay): 29%
ΔOD/ml/min (BSA degradation, proteinase enzyme assay): 0.8 ΔOD/ml/min

B2: ADR4-12 (other)
chain: EVQLLESGGGLVQPGGSLRLSCAASGDTVSSKAMAWVRQAPGKGLEWVSGIFIPNGSTYYADSVKGRFTISRDNSKNTLYLQMNSLRAEDTAVYYCAAKQRAVLSRWGSSTEFGSWGQGTLVTVSS
% Inhibition (BSA degradation, proteinase enzyme assay): 60%
ΔOD/ml/min (BSA degradation, proteinase enzyme assay): 0.6 ΔOD/ml/min

B3: ADR4-5 (other)
chain: EVQLLESGGGLVQPGGSLRLSCAASGDRISSEFMGWVRQAPGKGLEWVSAIYKPNGSTYYADSVKGRFTISRDNSKNTLYLQMNSLRAEDTAVYYCARGRARRTESTYQLRYWGQGTLVTVSS
% Inhibition (BSA degradation, proteinase enzyme assay): 0%
ΔOD/ml/min (BSA degradation, proteinase enzyme assay): 1 ΔOD/ml/min

B4: ADR4-4 (other)
chain: EVQLLESGGGLVQPGGSLRLSCAASGFTFLDYQMSWVRQAPGKGLEWVSGISRSGNKTKYADSVKGRFTISRDNSKNTLYLQMNSLRAEDTAVYYCAKWAGLNRHDFDYWGQGTLVTVSS
% Inhibition (BSA degradation, proteinase enzyme assay): 32%
ΔOD/ml/min (BSA degradation, proteinase enzyme assay): 0.76 ΔOD/ml/min

B5: ADR4-10 (other)
chain: EVQLLESGGGLVQPGGSLRLSCAASGVSVSAYTMSWVRQAPGKGLEWVSAILKKNGSTYYADSVKGRFTISRDNSKNTLYLQMNSLRAEDTAVYYCAGRPSVTFGGPGKRYDYHFQYWGQGTLVTVSS
% Inhibition (BSA degradation, proteinase enzyme assay): 13%
ΔOD/ml/min (BSA degradation, proteinase enzyme assay): 0.83 ΔOD/ml/min

B6: ADR4-6 (other)
chain: EVQLLESGGGLVQPGGSLRLSCAASGFRVSNYDLTWVRQAPGKGLEWVSTISATNGSTYYADSVKGRFTISRDNSKNTLYLQMNSLRAEDTAVYYCAAVTWWLLRHNDNLGFWGQGTLVTVSS
% Inhibition (BSA degradation, proteinase enzyme assay): 78%
ΔOD/ml/min (BSA degradation, proteinase enzyme assay): 0.5 ΔOD/ml/min

B7: ADR4-7 (other)
chain: EVQLLESGGGLVQPGGSLRLSCAASGYSVTYQNMAWVRQAPGKGLEWVSTITVPNGSTYYADSVKGRFTISRDNSKNTLYLQMNSLRAEDTAVYYCAGLGEVLRDGNANVQFWGQGTLVTVSS
% Inhibition (BSA degradation, proteinase enzyme assay): 61%
ΔOD/ml/min (BSA degradation, proteinase enzyme assay): 0.7 ΔOD/ml/min

B8: ADR4-3 (other)
chain: EVQLLESGGGLVQPGGSLRLSCAASGFTFAQYRMAWVRQAPGKGLEWVSQINAQGTQTGYADSVKGRFTISRDNSKNTLYLQMNSLRAEDTAVYYCAKWVGGARYTFDYWGQGTLVTVSS
% Inhibition (BSA degradation, proteinase enzyme assay): 40%
ΔOD/ml/min (BSA degradation, proteinase enzyme assay): 0.66 ΔOD/ml/min

B9: ADR4-13 (other)
chain: EVQLLESGGGLVQPGGSLRLSCAASGFSISYKNMAWVRQAPGKGLEWVSAIKAANGSTYYADSVKGRFTISRDNSKNTLYLQMNSLRAEDTAVYYCATGSQKKRTYTFDFWGQGTLVTVSS
% Inhibition (BSA degradation, proteinase enzyme assay): 82%
ΔOD/ml/min (BSA degradation, proteinase enzyme assay): 0.46 ΔOD/ml/min

B10: ADR4-8 (other)
chain: EVQLLESGGGLVQPGGSLRLSCAASGFSLSYKVMGWVRQAPGKGLEWVSAINRENGSTYYADSVKGRFTISRDNSKNTLYLQMNSLRAEDTAVYYCAGFARRGAPHSASVEFWGQGTLVTVSS
% Inhibition (BSA degradation, proteinase enzyme assay): 0%
ΔOD/ml/min (BSA degradation, proteinase enzyme assay): 1 ΔOD/ml/min

B11: ADR4-9 (other)
chain: EVQLLESGGGLVQPGGSLRLSCAASGVRLSHQVMGWVRQAPGKGLEWVSAIRSSDGSTYYADSVKGRFTISRDNSKNTLYLQMNSLRAEDTAVYYCAGWRSAKSQMHYWGQGTLVTVSS
% Inhibition (BSA degradation, proteinase enzyme assay): 5%
ΔOD/ml/min (BSA degradation, proteinase enzyme assay): 0.93 ΔOD/ml/min
